In US20190177417A1 (BIOATLA, published 2019):

T1: Axl protein (human, UniProt P30530 26-451)
T1 construct: extracellular domain; also called human Axl; hAxl
T1 sequence (looked up): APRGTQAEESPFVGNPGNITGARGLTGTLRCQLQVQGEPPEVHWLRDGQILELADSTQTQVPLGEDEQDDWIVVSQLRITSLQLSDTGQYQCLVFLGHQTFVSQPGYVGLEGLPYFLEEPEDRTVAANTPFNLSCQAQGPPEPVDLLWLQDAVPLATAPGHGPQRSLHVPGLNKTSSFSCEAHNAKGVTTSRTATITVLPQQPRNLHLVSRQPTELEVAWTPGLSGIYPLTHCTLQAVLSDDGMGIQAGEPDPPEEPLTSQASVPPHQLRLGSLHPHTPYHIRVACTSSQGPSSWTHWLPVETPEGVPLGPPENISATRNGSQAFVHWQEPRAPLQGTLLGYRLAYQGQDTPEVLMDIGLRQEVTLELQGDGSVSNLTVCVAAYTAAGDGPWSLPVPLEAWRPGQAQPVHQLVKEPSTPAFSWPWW


Experiments:
Axl protein [1] = target: T1, Axl protein; assay: ELISA, 1:3 dilution, pH 6.0 over pH 7.4
Axl protein [2] = target: T1, Axl protein; assay: ELISA, 1:9 dilution, pH 6.0 over pH 7.4

Binder | Affinity ELISA CPE mutant ratio (1:3, pH 6.0/7.4) (Axl protein [1]) [ratio] | Affinity ELISA CPE mutant ratio (1:9, pH 6.0/7.4) (Axl protein [2]) [ratio]
LC-V029D (antibody, V domains shown) VH: EVQLVQSGAEVKKPGATVKISCKVSGYSFTGHTMNWIRQPPGKGLEWIGLIKPSNGGTSYNQKFKGRVTISADKSISTAYLQWSSLKASDTAMYYCAHGHYESYFAMDYWGQGTLVTVSS VL: DIQMTQSPSSLSASVGDRVTITCKASQDDSSAVAWYQQKPGQAPRLLIYWASTRHTGVPSRFSGSGSGTEFTLTISSLQPDDFATYYCQEHFSTPLTFGQGTKVEIK | 2.88 | 2.68
LC-A034D (antibody, V domains shown) VH: EVQLVQSGAEVKKPGATVKISCKVSGYSFTGHTMNWIRQPPGKGLEWIGLIKPSNGGTSYNQKFKGRVTISADKSISTAYLQWSSLKASDTAMYYCAHGHYESYFAMDYWGQGTLVTVSS VL: DIQMTQSPSSLSASVGDRVTITCKASQDVSSAVDWYQQKPGQAPRLLIYWASTRHTGVPSRFSGSGSGTEFTLTISSLQPDDFATYYCQEHFSTPLTFGQGTKVEIK | 3 | 2.6
LC-V029N (antibody, V domains shown) VH: EVQLVQSGAEVKKPGATVKISCKVSGYSFTGHTMNWIRQPPGKGLEWIGLIKPSNGGTSYNQKFKGRVTISADKSISTAYLQWSSLKASDTAMYYCAHGHYESYFAMDYWGQGTLVTVSS VL: DIQMTQSPSSLSASVGDRVTITCKASQDNSSAVAWYQQKPGQAPRLLIYWASTRHTGVPSRFSGSGSGTEFTLTISSLQPDDFATYYCQEHFSTPLTFGQGTKVEIK | 2.6 | 2.65
LC-F092G (antibody, V domains shown) VH: EVQLVQSGAEVKKPGATVKISCKVSGYSFTGHTMNWIRQPPGKGLEWIGLIKPSNGGTSYNQKFKGRVTISADKSISTAYLQWSSLKASDTAMYYCAHGHYESYFAMDYWGQGTLVTVSS VL: DIQMTQSPSSLSASVGDRVTITCKASQDVSSAVAWYQQKPGQAPRLLIYWASTRHTGVPSRFSGSGSGTEFTLTISSLQPDDFATYYCQEHGSTPLTFGQGTKVEIK | 3.69 | 4.76
LC-V029G (antibody, V domains shown) VH: EVQLVQSGAEVKKPGATVKISCKVSGYSFTGHTMNWIRQPPGKGLEWIGLIKPSNGGTSYNQKFKGRVTISADKSISTAYLQWSSLKASDTAMYYCAHGHYESYFAMDYWGQGTLVTVSS VL: DIQMTQSPSSLSASVGDRVTITCKASQDGSSAVAWYQQKPGQAPRLLIYWASTRHTGVPSRFSGSGSGTEFTLTISSLQPDDFATYYCQEHFSTPLTFGQGTKVEIK | 1.94 | 1.8
LC-V029W (antibody, V domains shown) VH: EVQLVQSGAEVKKPGATVKISCKVSGYSFTGHTMNWIRQPPGKGLEWIGLIKPSNGGTSYNQKFKGRVTISADKSISTAYLQWSSLKASDTAMYYCAHGHYESYFAMDYWGQGTLVTVSS VL: DIQMTQSPSSLSASVGDRVTITCKASQDWSSAVAWYQQKPGQAPRLLIYWASTRHTGVPSRFSGSGSGTEFTLTISSLQPDDFATYYCQEHFSTPLTFGQGTKVEIK | 2.31 | 2.35
LC-A034N (antibody, V domains shown) VH: EVQLVQSGAEVKKPGATVKISCKVSGYSFTGHTMNWIRQPPGKGLEWIGLIKPSNGGTSYNQKFKGRVTISADKSISTAYLQWSSLKASDTAMYYCAHGHYESYFAMDYWGQGTLVTVSS VL: DIQMTQSPSSLSASVGDRVTITCKASQDVSSAVNWYQQKPGQAPRLLIYWASTRHTGVPSRFSGSGSGTEFTLTISSLQPDDFATYYCQEHFSTPLTFGQGTKVEIK | 2.63 | 2.4
LC-F092N (antibody, V domains shown) VH: EVQLVQSGAEVKKPGATVKISCKVSGYSFTGHTMNWIRQPPGKGLEWIGLIKPSNGGTSYNQKFKGRVTISADKSISTAYLQWSSLKASDTAMYYCAHGHYESYFAMDYWGQGTLVTVSS VL: DIQMTQSPSSLSASVGDRVTITCKASQDVSSAVAWYQQKPGQAPRLLIYWASTRHTGVPSRFSGSGSGTEFTLTISSLQPDDFATYYCQEHNSTPLTFGQGTKVEIK | 1.93 | 2
LC-A032M (antibody, V domains shown) VH: EVQLVQSGAEVKKPGATVKISCKVSGYSFTGHTMNWIRQPPGKGLEWIGLIKPSNGGTSYNQKFKGRVTISADKSISTAYLQWSSLKASDTAMYYCAHGHYESYFAMDYWGQGTLVTVSS VL: DIQMTQSPSSLSASVGDRVTITCKASQDVSSMVAWYQQKPGQAPRLLIYWASTRHTGVPSRFSGSGSGTEFTLTISSLQPDDFATYYCQEHFSTPLTFGQGTKVEIK | 4.76 | 2.92
LC-H091Y (antibody, V domains shown) VH: EVQLVQSGAEVKKPGATVKISCKVSGYSFTGHTMNWIRQPPGKGLEWIGLIKPSNGGTSYNQKFKGRVTISADKSISTAYLQWSSLKASDTAMYYCAHGHYESYFAMDYWGQGTLVTVSS VL: DIQMTQSPSSLSASVGDRVTITCKASQDVSSAVAWYQQKPGQAPRLLIYWASTRHTGVPSRFSGSGSGTEFTLTISSLQPDDFATYYCQEYFSTPLTFGQGTKVEIK | 3.93 | 5.13
LC-A032L (antibody, V domains shown) VH: EVQLVQSGAEVKKPGATVKISCKVSGYSFTGHTMNWIRQPPGKGLEWIGLIKPSNGGTSYNQKFKGRVTISADKSISTAYLQWSSLKASDTAMYYCAHGHYESYFAMDYWGQGTLVTVSS VL: DIQMTQSPSSLSASVGDRVTITCKASQDVSSLVAWYQQKPGQAPRLLIYWASTRHTGVPSRFSGSGSGTEFTLTISSLQPDDFATYYCQEHFSTPLTFGQGTKVEIK | 1.98 | 2.27
LC-F092E (antibody, V domains shown) VH: EVQLVQSGAEVKKPGATVKISCKVSGYSFTGHTMNWIRQPPGKGLEWIGLIKPSNGGTSYNQKFKGRVTISADKSISTAYLQWSSLKASDTAMYYCAHGHYESYFAMDYWGQGTLVTVSS VL: DIQMTQSPSSLSASVGDRVTITCKASQDVSSAVAWYQQKPGQAPRLLIYWASTRHTGVPSRFSGSGSGTEFTLTISSLQPDDFATYYCQEHESTPLTFGQGTKVEIK | 1.76 | 2
LC-H091T (antibody, V domains shown) VH: EVQLVQSGAEVKKPGATVKISCKVSGYSFTGHTMNWIRQPPGKGLEWIGLIKPSNGGTSYNQKFKGRVTISADKSISTAYLQWSSLKASDTAMYYCAHGHYESYFAMDYWGQGTLVTVSS VL: DIQMTQSPSSLSASVGDRVTITCKASQDVSSAVAWYQQKPGQAPRLLIYWASTRHTGVPSRFSGSGSGTEFTLTISSLQPDDFATYYCQETFSTPLTFGQGTKVEIK | 3.78 | 3.78
LC-F092D (antibody, V domains shown) VH: EVQLVQSGAEVKKPGATVKISCKVSGYSFTGHTMNWIRQPPGKGLEWIGLIKPSNGGTSYNQKFKGRVTISADKSISTAYLQWSSLKASDTAMYYCAHGHYESYFAMDYWGQGTLVTVSS VL: DIQMTQSPSSLSASVGDRVTITCKASQDVSSAVAWYQQKPGQAPRLLIYWASTRHTGVPSRFSGSGSGTEFTLTISSLQPDDFATYYCQEHDSTPLTFGQGTKVEIK | 2.97 | 2.94
LC-H091S (antibody, V domains shown) VH: EVQLVQSGAEVKKPGATVKISCKVSGYSFTGHTMNWIRQPPGKGLEWIGLIKPSNGGTSYNQKFKGRVTISADKSISTAYLQWSSLKASDTAMYYCAHGHYESYFAMDYWGQGTLVTVSS VL: DIQMTQSPSSLSASVGDRVTITCKASQDVSSAVAWYQQKPGQAPRLLIYWASTRHTGVPSRFSGSGSGTEFTLTISSLQPDDFATYYCQESFSTPLTFGQGTKVEIK | 1.76 | 1.34
LC-F092C (antibody, V domains shown) VH: EVQLVQSGAEVKKPGATVKISCKVSGYSFTGHTMNWIRQPPGKGLEWIGLIKPSNGGTSYNQKFKGRVTISADKSISTAYLQWSSLKASDTAMYYCAHGHYESYFAMDYWGQGTLVTVSS VL: DIQMTQSPSSLSASVGDRVTITCKASQDVSSAVAWYQQKPGQAPRLLIYWASTRHTGVPSRFSGSGSGTEFTLTISSLQPDDFATYYCQEHCSTPLTFGQGTKVEIK | 3.86 | 4.58
LC-A034Q (antibody, V domains shown) VH: EVQLVQSGAEVKKPGATVKISCKVSGYSFTGHTMNWIRQPPGKGLEWIGLIKPSNGGTSYNQKFKGRVTISADKSISTAYLQWSSLKASDTAMYYCAHGHYESYFAMDYWGQGTLVTVSS VL: DIQMTQSPSSLSASVGDRVTITCKASQDVSSAVQWYQQKPGQAPRLLIYWASTRHTGVPSRFSGSGSGTEFTLTISSLQPDDFATYYCQEHFSTPLTFGQGTKVEIK | 2 | 1.41
LC-H091V (antibody, V domains shown) VH: EVQLVQSGAEVKKPGATVKISCKVSGYSFTGHTMNWIRQPPGKGLEWIGLIKPSNGGTSYNQKFKGRVTISADKSISTAYLQWSSLKASDTAMYYCAHGHYESYFAMDYWGQGTLVTVSS VL: DIQMTQSPSSLSASVGDRVTITCKASQDVSSAVAWYQQKPGQAPRLLIYWASTRHTGVPSRFSGSGSGTEFTLTISSLQPDDFATYYCQEVFSTPLTFGQGTKVEIK | 4.13 | 1.17
